Data reported in patent publication US20220218785A1 (ALPINE IMMUNE SCIENCES, published 2022).
Numbering of substitutions follows the chain as printed. Numbers in names are those of the source. One block for each binder: values may come before it.

How the values were obtained:
human CD28 [1] = target: T1, human CD28 (human, UniProt P10747 19-220); experiment: flow cytometry, cells with human CD28; protein from CHO
T1 construct: whole, on cells

human ICOS [2] = target: T2, human ICOS (human, UniProt Q9Y6W8 21-199); experiment: flow cytometry, cells with human ICOS; protein from CHO
T2 construct: whole, on cells
T2 sequence (looked up): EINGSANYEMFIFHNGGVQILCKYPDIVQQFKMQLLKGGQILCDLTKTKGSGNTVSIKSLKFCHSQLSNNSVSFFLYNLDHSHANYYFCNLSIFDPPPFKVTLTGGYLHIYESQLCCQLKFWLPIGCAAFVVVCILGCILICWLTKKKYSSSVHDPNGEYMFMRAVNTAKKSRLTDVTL

human CD28 [3] = target: T1, human CD28; experiment: flow cytometry, cells with human CD28; protein from 293
human CD28 [4] = target: T1, human CD28; experiment: flow cytometry, cells with human CD28; protein from CHO; remark: listed apart in the source
human ICOS [5] = target: T2, human ICOS; experiment: flow cytometry, cells with human ICOS; protein from 293
human ICOS [6] = target: T2, human ICOS; experiment: flow cytometry, cells with human ICOS; protein from CHO; remark: listed apart in the source
human CTLA-4 [7] = target: T3, human CTLA-4 (human, UniProt P16410 36-223); experiment: flow cytometry, cells with human CTLA-4; protein from CHO
T3 construct: whole, on cells
T3 sequence (P16410 36-223): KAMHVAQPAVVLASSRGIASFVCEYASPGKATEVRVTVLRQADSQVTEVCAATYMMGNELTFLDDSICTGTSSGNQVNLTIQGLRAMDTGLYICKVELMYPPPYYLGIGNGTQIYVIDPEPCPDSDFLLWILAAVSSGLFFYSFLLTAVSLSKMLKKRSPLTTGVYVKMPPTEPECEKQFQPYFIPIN

human CTLA-4 [8] = target: T3, human CTLA-4; experiment: flow cytometry, cells with human CTLA-4; protein from 293
human CTLA-4 [9] = target: T3, human CTLA-4; experiment: flow cytometry, cells with human CTLA-4; protein from CHO; remark: listed apart in the source
[10] = target: T4, ICOSL labeled with AlexaFluor-647 (UniProt O75144 19-256, limits assumed, labeled with AlexaFluor-647); experiment: competition, flow cytometry: labelled ICOSL on CHO cells expressing ICOS
T4 sequence (looked up): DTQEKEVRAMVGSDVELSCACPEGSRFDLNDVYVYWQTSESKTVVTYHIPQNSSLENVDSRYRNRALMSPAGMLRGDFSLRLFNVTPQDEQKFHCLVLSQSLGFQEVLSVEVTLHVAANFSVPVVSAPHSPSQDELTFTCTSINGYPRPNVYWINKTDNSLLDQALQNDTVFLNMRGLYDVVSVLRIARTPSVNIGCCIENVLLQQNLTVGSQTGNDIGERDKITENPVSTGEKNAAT

B1: ICOSL ECD Truncation #4 with N52H/N57Y/Q100R/F172S, Fc fusion (Fc fusion)
chain: DTQEKEVRAMVGSDVELSCACPEGSRFDLNDVYVYWQTSESKTVVTYHIPQHSSLEYVDSRYRNRALMSPAGMLRGDFSLRLFNVTPQDEQKFHCLVLSRSLGFQEVLSVEVTLHVAANFSVPVVSAPHSPSQDELTFTCTSINGYPRPNVYWINKTDNSLLDQALQNDTVSLNMRGLYDVVSVLRIARTPSVNIGCCIENVLLQQNGGGGSGGGGSEPKSSDKTHTCPPCPAPEAEGAPSVFLFPPKPKDTLMISRTPEVTCVVVDVSHEDPEVKFNWYVDGVEVHNAKTKPREEQYNSTYRVVSVLTVLHQDWLNGKEYKCKVSNKALPAPIEKTISKAKGQPREPQVYTLPPSREEMTKNQVSLTCLVKGFYPSDIAVEWESNGQPENNYKTTPPVLDSDGSFFLYSKLTVDKSRWQQGNVFSCSVMHEALHNHYTQKSLSLSPG
- MFI (ΔWT) (human CD28 [1]): 39.7 fold vs WT
- MFI (ΔWT) (human ICOS [2]): 1.3 fold vs WT
- MFI (ΔWT) (human CD28 [3]): 4.1 fold vs WT
- MFI (ΔWT) (human CD28 [4]): 3.6 fold vs WT
- MFI (ΔWT) (human ICOS [5]): 0.6 fold vs WT
- MFI (ΔWT) (human ICOS [6]): 0.7 fold vs WT
- MFI (ΔWT) (human CTLA-4 [7]): 49.8 fold vs WT
- MFI (ΔWT) (human CTLA-4 [8]): 0.7 fold vs WT
- MFI (ΔWT) (human CTLA-4 [9]): 0.7 fold vs WT

B4: ICOSL ECD Truncation #7 with N52H/N57Y/Q100R/F172S, Fc fusion (Fc fusion)
chain: DTQEKEVRAMVGSDVELSCACPEGSRFDLNDVYVYWQTSESKTVVTYHIPQHSSLEYVDSRYRNRALMSPAGMLRGDFSLRLFNVTPQDEQKFHCLVLSRSLGFQEVLSVEVTLHVAANFSVPVVSAPHSPSQDELTFTCTSINGYPRPNVYWINKTDNSLLDQALQNDTVSLNMRGLYDVVSVLRIARTPSVNIGCCIENGGGGSGGGGSEPKSSDKTHTCPPCPAPEAEGAPSVFLFPPKPKDTLMISRTPEVTCVVVDVSHEDPEVKFNWYVDGVEVHNAKTKPREEQYNSTYRVVSVLTVLHQDWLNGKEYKCKVSNKALPAPIEKTISKAKGQPREPQVYTLPPSREEMTKNQVSLTCLVKGFYPSDIAVEWESNGQPENNYKTTPPVLDSDGSFFLYSKLTVDKSRWQQGNVFSCSVMHEALHNHYTQKSLSLSPG
- MFI (ΔWT) (human CD28 [3]): 3.4 fold vs WT
- MFI (ΔWT) (human CD28 [4]): 3.7 fold vs WT
- MFI (ΔWT) (human ICOS [5]): 0.7 fold vs WT
- MFI (ΔWT) (human ICOS [6]): 0.7 fold vs WT
- MFI (ΔWT) (human CTLA-4 [8]): 0.8 fold vs WT
- MFI (ΔWT) (human CTLA-4 [9]): 0.7 fold vs WT

B6: ICOSL ECD with N52H/N57Y/Q100R/C198R, Fc C220S/L234A/L235E/G237A (SEQ ID NO: 40) (Fc fusion, not shown: small tags and cut ends)
chain (part 1 of 2): T4 sequence (looked up) with N52H, N57Y, Q100R, C198R
chain (part 2 of 2): EPKSSDKTHTCPPCPAPEAEGAPSVFLFPPKPKDTLMISRTPEVTCVVVDVSHEDPEVKFNWYVDGVEVHNAKTKPREEQYNSTYRVVSVLTVLHQDWLNGKEYKCKVSNKALPAPIEKTISKAKGQPREPQVYTLPPSREEMTKNQVSLTCLVKGFYPSDIAVEWESNGQPENNYKTTPPVLDSDGSFFLYSKLTVDKSRWQQGNVFSCSVMHEALHNHYTQKSLSLSPGK
- MFI (human ICOS [6]): 7700 MFI
- MFI (ΔWT) (human ICOS [6]): 0.7 fold vs WT
- MFI (human CTLA-4 [8]): 8720 MFI
- MFI (ΔWT) (human CTLA-4 [8]): 0.7 fold vs WT
- MFI (human CTLA-4 [9]): 8750 MFI
- MFI (ΔWT) (human CTLA-4 [9]): 0.7 fold vs WT

Now from value to binder:

- MFI (ΔWT) (human CD28 [1]): 49 fold vs WT
- MFI (ΔWT) (human ICOS [2]): 1.2 fold vs WT
- MFI (ΔWT) (human CD28 [3]): 4.7 fold vs WT
- MFI (ΔWT) (human CD28 [4]): 4.9 fold vs WT
- MFI (ΔWT) (human ICOS [5]): 0.8 fold vs WT
- MFI (ΔWT) (human ICOS [6]): 0.7 fold vs WT
- MFI (ΔWT) (human CTLA-4 [7]): 27 fold vs WT
- MFI (ΔWT) (human CTLA-4 [8]): 0.8 fold vs WT
- MFI (ΔWT) (human CTLA-4 [9]): 0.7 fold vs WT
B2: ICOSL IgV with N52H/N57Y/Q100R, Fc fusion with (G4S)2 linker (Fc fusion)
chain: DTQEKEVRAMVGSDVELSCACPEGSRFDLNDVYVYWQTSESKTVVTYHIPQHSSLEYVDSRYRNRALMSPAGMLRGDFSLRLFNVTPQDEQKFHCLVLSRSLGFQEVLSVEVTLHVAANFSVGGGGSGGGGSEPKSSDKTHTCPPCPAPEAEGAPSVFLFPPKPKDTLMISRTPEVTCVVVDVSHEDPEVKFNWYVDGVEVHNAKTKPREEQYNSTYRVVSVLTVLHQDWLNGKEYKCKVSNKALPAPIEKTISKAKGQPREPQVYTLPPSREEMTKNQVSLTCLVKGFYPSDIAVEWESNGQPENNYKTTPPVLDSDGSFFLYSKLTVDKSRWQQGNVFSCSVMHEALHNHYTQKSLSLSPG
notes: also called ICOSCL IgV with N52H/N57Y/Q100R

- IC50 [10]: 23.3 nM
B3: prezalumab (AMG-557; anti-ICOSL, Creative Biolabs) (antibody, V domains shown)
VH: EVQLVESGGGLVQPGGSLRLSCAASGFTFSSYWMSWVRQAPGKGLEWVAYIKQDGNEKYYVDSVKGRFTISRDNAKNSLYLQMNSLRAEDTAVYYCAREGILWFGDLPTFWGQGTLVTVSS
VL: DIQMTQSPSSLSASVGDRVTITCRASQGISNWLAWYQQKPEKAPKSLIYAASSLQSGVPSRFSGSGSGTDFTLTISSLQPEDFATYYCQQYDSYPRTFGQGTKVEIK

- MFI (ΔWT) (human CD28 [1]): 63.9 fold vs WT
- MFI (ΔWT) (human ICOS [2]): 1.4 fold vs WT
- MFI (ΔWT) (human CD28 [3]): 3.6 fold vs WT
- MFI (ΔWT) (human CD28 [4]): 4.1 fold vs WT
- MFI (ΔWT) (human ICOS [5]): 1.4 fold vs WT
- MFI (ΔWT) (human ICOS [6]): 1.1 fold vs WT
- MFI (ΔWT) (human CTLA-4 [7]): 42.6 fold vs WT
- MFI (ΔWT) (human CTLA-4 [8]): 0.7 fold vs WT
- MFI (ΔWT) (human CTLA-4 [9]): 0.7 fold vs WT
B5: ICOSL ECD with N52H/N57Y/Q100R/F172S, Fc fusion with (G4S)2 linker (Fc fusion)
chain: DTQEKEVRAMVGSDVELSCACPEGSRFDLNDVYVYWQTSESKTVVTYHIPQHSSLEYVDSRYRNRALMSPAGMLRGDFSLRLFNVTPQDEQKFHCLVLSRSLGFQEVLSVEVTLHVAANFSVPVVSAPHSPSQDELTFTCTSINGYPRPNVYWINKTDNSLLDQALQNDTVSLNMRGLYDVVSVLRIARTPSVNIGCCIENVLLQQNLTVGSQTGNDIGERDKITENPVSTGEKNAATGGGGSGGGGSEPKSSDKTHTCPPCPAPEAEGAPSVFLFPPKPKDTLMISRTPEVTCVVVDVSHEDPEVKFNWYVDGVEVHNAKTKPREEQYNSTYRVVSVLTVLHQDWLNGKEYKCKVSNKALPAPIEKTISKAKGQPREPQVYTLPPSREEMTKNQVSLTCLVKGFYPSDIAVEWESNGQPENNYKTTPPVLDSDGSFFLYSKLTVDKSRWQQGNVFSCSVMHEALHNHYTQKSLSLSPG
notes: also called ICOSCL ECD with N52H/N57Y/Q100R/F1725
